Assay results from patent US20210246451, “APTAMER FOR ADAMTS5 AND USE FOR APTAMER FOR ADAMTS5” (RIBOMIC INC., published 2021).

Assays:
ADAMTS5 [1] = biological target: T1, ADAMTS5 (UniProt Q9UNA0 Q9UNA0:262-622); assay: inhibition; 30 nM; conditions: tags: R&D Systems
T1 sequence: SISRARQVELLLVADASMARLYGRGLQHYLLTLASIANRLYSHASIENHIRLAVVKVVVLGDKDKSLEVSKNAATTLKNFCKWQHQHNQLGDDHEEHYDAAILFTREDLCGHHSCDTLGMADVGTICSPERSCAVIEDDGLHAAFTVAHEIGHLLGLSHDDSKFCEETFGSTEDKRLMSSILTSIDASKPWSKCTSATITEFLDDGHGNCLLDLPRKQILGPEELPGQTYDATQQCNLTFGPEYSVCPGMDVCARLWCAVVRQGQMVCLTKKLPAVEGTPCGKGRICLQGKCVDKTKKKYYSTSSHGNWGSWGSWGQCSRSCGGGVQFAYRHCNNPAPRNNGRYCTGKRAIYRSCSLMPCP
Method: (§1) Whether an aptamer having the nucleotide sequence shown in SEQ ID NO: 1 inhibits the enzyme activity of ADAMTS5 was evaluated by the following method. As a substrate of ADAMTS5, the G1-IGD-G2 domain of aggrecan (manufactured by R&D systems) was used. ADAMTS5 specifically cleaves in between the 392nd glutamic acid and the 393rd alanine in the G1-IGD-G2 domain and produces two fragments. These fragments have faster electrophoretic mobility than uncleaved G1-IGD-G2. Thus, the enzyme activity of ADAMTS5 can be measured by quantifying the band intensity of G1-IGD-G2 by SDS-PAGE electrophoresis. The assay was performed in a solution A buffer with a reaction mixture volume of 10 μL. First, a mixture (10 μL) of a nucleic acid and ADAMTS5 was prepared and incubated at 25° C. for 15 min. To a substrate solution (5 μL) diluted with solution A was added a mixture (5 μL) of the nucleic acid and ADAMTS5 to start the enzyme reaction. The final concentration of ADAMTS5 in the reaction solution was 5 nM, and the final substrate concentration was 50 μg/mL. The reaction solution was incubated at 37° C. for 2 hr, 2 μL of solution D was added, and the mixture was heated at 95° C. for 2 min to stop the enzyme reaction of ADAMTS5. Solution D contains 0.25 M tris (pH 6.8), 10% SDS, 50% glycerol, 0.25% bromo phenolblue, and 20% 2-mercaptoethanol. The heat-treated reaction solution was electrophoresed by 7.5% SDS-PAGE and stained with SYPRO Orange (manufactured by Sigma-Aldrich). The staining was performed according to the manual of Sigma-Aldrich and detected using STORM840 manufactured by GE Healthcare. […] The amount of uncleaved substrate in each reaction solution was quantified from the band intensity and the standard curve. The substrate cleavage efficiency of ADAMTS5 under these reaction conditions was 80-100%. The inhibition rate of the test substance was calculated using the following equation.
Whether these aptamers inhibit the enzyme activity of ADAMTS5 was tested by a method similar to that in Example 1. The final concentration of the nucleic acid was fixed to 30 nM in the test.

ADAMTS5 [2] = biological target: T1, ADAMTS5; assay: inhibition; 30 nM; conditions: tags: R&D Systems; remark: listed apart in the source
Method: as §1
The nucleic acids shown in SEQ ID NOs: 3(1)-3(16) were all produced by chemical synthesis. Whether these nucleic acids inhibit the enzyme activity of ADAMTS5 was determined by a method similar to that in Example 1.

ADAMTS5 [3] = biological target: T1, ADAMTS5; assay: SPR; RU ratio <10%, same level as 40N; 300 mM NaCl, Ca, Mg; conditions: tags: R&D Systems
Method: The binding activity of aptamers having the nucleotide sequences shown in SEQ ID NOs: 1 and 2 to ADAMTS5 was evaluated by the surface plasmon resonance method. Biacore T100 manufactured by GE Healthcare was used for the measurement. The SA chip was used as the sensor chip, which had streptavidin immobilized thereon. About 800 RU of a 16-nucleotide Poly dT with biotin at the 5′-terminal was bound on the chip. […] ADAMTS5 for analyte was prepared at 0.1 μM, and injected at a flow rate so of 30 μL/min for 60 sec. As the running buffer, solution C was used. The solution C is a mixed solution of 300 mM sodium chloride, 5.4 mM potassium chloride, 1.8 mM calcium chloride, 0.8 mM magnesium chloride, 20 mM tris (pH 7.6), and 0.05% Tween20.
SEQ ID NO: 2 has a sequence with one base deletion from the continuous 4 G bases in the consensus sequence, and it was shown from the measurement results of the binding activity that the continuous 4 G bases in the consensus sequence are important for the activity of aptamers. Sensorgram showing the binding of an aptamer having the nucleotide sequence shown in SEQ ID NO: 1 to ADAMTS5 is presented in FIG. 2. […]

ADAMTS5 [4] = biological target: T1, ADAMTS5; assay: inhibition; 10 nM aptamer; conditions: tags: R&D Systems
Method: as §1, with “The substrate cleavage efficiency of ADAMTS5 under these reaction conditions was 80-100%.” left out
The binding activity and enzyme inhibitory activity of aptamers having nucleotide sequences shown in SEQ ID NOs: 16-25 to ADAMTS5 were measured. The binding activity was evaluated by the surface plasmon resonance method. […]

ADAMTS5 [5] = biological target: T1, ADAMTS5; assay: inhibition; 10 nM; conditions: tags: R&D Systems
Method: as §1, with “The substrate cleavage efficiency of ADAMTS5 under these reaction conditions was 80-100%.” left out
The nucleic acids of SEQ ID NOs: 10-12 were all produced by chemical synthesis. Whether aptamers having the nucleotide sequences shown by these nucleic acids inhibit the enzyme activity of ADAMTS5 was determined by a method similar to that in Example 1.

ADAMTS5 [6] = biological target: T1, ADAMTS5; assay: inhibition; SDS-PAGE aggrecan cleavage, 5 nM enzyme; conditions: tags: R&D Systems
Method: as §1, with “The reaction solution was incubated at 37° C. for 2 hr, 2 μL of solution D was added, and the mixture was heated at 95° C. for 2 min to stop the enzyme reaction of ADAMTS5. Solution D contains 0.25 M tris (pH 6.8), 10% SDS, 50% glycerol, 0.25% bromo phenolblue, and 20% 2-mercaptoethanol. The heat-treated reaction solution was electrophoresed by 7.5% SDS-PAGE and stained with SYPRO Orange (manufactured by Sigma-Aldrich).” left out, “The substrate cleavage efficiency of ADAMTS5 under these reaction conditions was 80-100%.” left out, “equation. […]” for “equation.”

ADAMTS5 [7] = biological target: T1, ADAMTS5; assay: inhibition; 5 nM ADAMTS5, aggrecan G1-IGD-G2 cleavage, 145 mM NaCl, Ca, Mg, 37 C; conditions: tags: R&D Systems; stem-internal loop-stem-loop (MFOLD)
Method: as §1, with “The final concentration of ADAMTS5 in the reaction solution was 5 nM, and the final substrate concentration was 50 μg/mL. The reaction solution was incubated at 37° C. for 2 hr, 2 μL of solution D was added, and the mixture was heated at 95° C. for 2 min to stop the enzyme reaction of ADAMTS5. Solution D contains 0.25 M tris (pH 6.8), 10% SDS, 50% glycerol, 0.25% bromo phenolblue, and 20% 2-mercaptoethanol. The heat-treated reaction solution was electrophoresed by 7.5% SDS-PAGE and stained with SYPRO Orange (manufactured by Sigma-Aldrich).” left out, “The substrate cleavage efficiency of ADAMTS5 under these reaction conditions was 80-100%.” left out
The concentration of an inhibitor necessary for inhibiting 50% of the enzyme activity (IC₅₀) was determined. […]

ADAMTS5 [8] = biological target: T1, ADAMTS5; assay: inhibition; 10 nM aptamer, aggrecan G1-IGD-G2 cleavage, method 1; conditions: tags: R&D Systems
Method: as §1
The aptamers having the sequences shown in SEQ ID NOs: 10(1)-10(8) and 11(1)-11(35), SEQ ID NO: 13-15 were all produced by chemical synthesis.

GGCUUGGGGCCUCCACAGCGCUCGCUUGGACUAAACCAAGCC (ssRNA, 2'-F pyrimidines) [SEQ ID NO: 5] gave an activity (ADAMTS5 [1]) of 27 % inhibition.

Binder GGCUUGGGGCCUCCACAGCUGCUCAGCUUGGACUAAACCAAGCC (ssRNA, 2'-F pyrimidines) [SEQ ID NO: 4] has an activity (ADAMTS5 [1]) of 23 % inhibition.

GGAUUGGGGCCUCCACAGCUGCUCAGCUUGGACUAAACCAAUCC (ssRNA, 2'-OMe at 4-6,39-41; 2'-F other pyrimidines) [3(2)] gave an activity (ADAMTS5 [2]) of 53.6 % inhibition.

In the case of GGAUUGGGGCCUCCACAGCUGCUCAGCUUGGACUAAACCAAUCC (ssRNA, 2'-OMe at A36; 2'-F pyrimidines) [3(4)], the activity (ADAMTS5 [2]) is reported as 53.1 % inhibition.

In the case of GGAUUGGGGCCUCCACAGCUGCUCAGCUUGGACUAAACCAAUCC (ssRNA, 2'-OMe at 1-3,42-44; 2'-F other pyrimidines) [3(1)], the activity (ADAMTS5 [2]) is reported as 49.8 % inhibition.

In the case of GGAUUGGGGCCUCCACAGCUGCUCAGCUUGGACUAAACCAAUCC (ssRNA, 2'-OMe at 18-20,25-27; 2'-F other pyrimidines) [3(3)], the activity (ADAMTS5 [2]) is reported as 48.6 % inhibition.

In the case of GGCUUGGGGCCUCCACAGCUGUCAGCUUGGACUAAACCAAGCC (ssRNA, 2'-F pyrimidines) [SEQ ID NO: 6], the activity (ADAMTS5 [1]) is reported as 33.7 % inhibition.

B1: SEQ ID NO: 2 (ssRNA)
RNA: GGGUACGACCGUCGUACGAUUGGGCCUCCACAGCUGCUCAGCUUGGACUAAACCAAUAAGAGACUAACGCCUAGCGUAC
modifications: 2'-F pyrimidines; 3' A16 tail for SPR
B1: no binding (ADAMTS5 [3]).

B2: SEQ ID NO: 22 (ssRNA)
RNA: GGGACAUGCGUAACUGCAUAGGGGCCUCCACAGCUAUUCAGCUUGGACACAAACCAUGCAGUCCAGAUCGAGCA
modifications: 2'-F at all pyrimidines
Binder B2 has an activity (ADAMTS5 [4]) of 14.8 % inhibition.

B3: SEQ ID NO: 23 (ssRNA)
RNA: GGGACAUGCGUAACUGUAUAGGGGCCUCCACAGCUGAAAAGCUUGGACUCAAACCAUACAGUCCAGAUCGAGCA
modifications: 2'-F at all pyrimidines
B3 showed an activity (ADAMTS5 [4]) of 14.5 % inhibition.

AUUGGGGCCUCCACAGCUGCUCAGCUUGGACUAAACCAAU (ssRNA, 2'-OMe at 1-5,15-26,28,34-40; 2'-F other pyrimidines) [SEQ ID NO: 10] gave an activity (ADAMTS5 [5]) of 65 % inhibition.

B4: SEQ ID NO: 24 (ssRNA)
RNA: GGGACAUGCGUAACUUGAUAGGGGCCUCCACAGCCGGUAGGCUUGGACUCAAACCAUCAAGUCCAGAUCGAGCA
modifications: 2'-F at all pyrimidines
Binder B4 has an activity (ADAMTS5 [4]) of 20.2 % inhibition.

UAUAGGGGCCUCCACAGCGUAAGCUUGGACUUAAACCAUA (ssRNA, 2'-OMe at 1-3,5,6,16-19,23-27,34-40; 2'-F other pyrimidines) [SEQ ID NO: 27] showed an IC50 (ADAMTS5 [6]) of 5.9 nM.

Work on GGAUUGGGGCCUCCACAGCGUCGCUUGGACUAAACCAAUCC (ssRNA, 2'-F pyrimidines) [SEQ ID NO: 9] yielded an activity (ADAMTS5 [1]) of 5.9 % inhibition.

B5: SEQ ID NO: 1 (ssRNA)
RNA: GGGUACGACCGUCGUACGAUUGGGGCCUCCACAGCUGCUCAGCUUGGACUAAACCAAUAAGAGACUAACGCCUAGCGUAC
modifications: 2'-F pyrimidines, 2'-OH purines; 3' A16 tail for SPR
Binder B5 has an IC50 (ADAMTS5 [7]) of 16.8 nM.

Work on UUGGGGCCUCCACAGCGCUCGCUUGGACUAAACCAA (ssRNA, 2'-OMe at 1-4,14-23,25,31-36; 2'-F other pyrimidines) [SEQ ID NO: 12] yielded an activity (ADAMTS5 [5]) of 71.1 % inhibition.

For AUUGGGGCCUCCACAGCGCUCGCUUGGACUAAACCAAU (ssRNA, 2'-OMe at 1-5,15-24,26,32-38; 2'-F other pyrimidines) [SEQ ID NO: 11], the activity (ADAMTS5 [5]) was 59.8 % inhibition.

With AUUGGGGCCUCCACAGCGCUCGCUUGGACUAAACCAAU (ssRNA, 2'-OMe at 1-5,15-26,32-38; 2'-F at 8-12,14,29,30; PS between 11 and 12) [11(22)] the activity (ADAMTS5 [8]) was 49.8 % inhibition.

In the case of AUUGGGGCCUCCACAGCGCUCGCUUGGACUAAACCAAU (ssRNA, 2'-OMe at 1-5,15-26,32-38; 2'-F at 8-12,14,29,30; PS between 26 and 27) [11(26)], the activity (ADAMTS5 [8]) is reported as 47.2 % inhibition.

Binder AUUGGGGCCUCCACAGCGCUCGCUUGGACUAAACCAAU (ssRNA, 2'-OMe at 1-5,15-26,32-38; 2'-F at 8-12,14,29,30; PS between 29 and 30) [11(29)] has an activity (ADAMTS5 [8]) of 56.5 % inhibition.

Work on AUUGGGGCCUCCACAGCGCUCGCUUGGACUAAACCAAU (ssRNA, 2'-OMe at 1-5,15-26,32-38; 2'-F at 8-12,14,29,30; PS between 31 and 32) [11(31)] yielded an activity (ADAMTS5 [8]) of 56.3 % inhibition.

For AUUGGGGCCUCCACAGCGCUCGCUUGGACUAAACCAAU (ssRNA, 2'-OMe at 1-5,15-26,32-38; 2'-F at 8-12,14,29,30; PS between 13 and 14) [11(24)], the activity (ADAMTS5 [8]) was 46.3 % inhibition.

AUUGGGGCCUCCACAGCGCUCGCUUGGACUAAACCAAU (ssRNA, 2'-OMe at 1-5,15-26,32-38; 2'-F at 8-12,14,29,30; PS between 12 and 13) [11(23)] gave an activity (ADAMTS5 [8]) of 47.9 % inhibition.

In the case of AUUGGGGCCUCCACAGCGCUCGCUUGGACUAAACCAAU (ssRNA, 2'-OMe at 1-5,15-26,32-38; 2'-F at 8-12,14,29,30; PS between 28 and 29) [11(28)], the activity (ADAMTS5 [8]) is reported as 44.8 % inhibition.

AUUGGGGCCUCCACAGCGCUCGCUUGGACUAAACCAAU (ssRNA, 2'-OMe at 1-5,15-26,32-38; 2'-F at 8-12,14,29,30; PS between 27 and 28) [11(27)] showed an activity (ADAMTS5 [8]) of 48.2 % inhibition.
